Source: publication PMC11589140 (2024)

B1: HA-tagged RUNX1T1, wild type [human] / FLAG-tagged Sin3A [not stated] (parent complex)
chain 1: MISVKRNTWRALSLVIGDCRKKGNFEYCQDRTEKHSTMPDSPVDVKTQSRLTPPTMPPPPTTQGAPRTSSFTPTTLTNGTSHSPTALNGAPSPPNGFSNGPSSSSSSSLANQQLPPACGARQLSKLKRFLTTLQQFGNDISPEIGERVRTLVLGLVNSTLTIEEFHSKLQEATNFPLRPFVIPFLKANLPLLQRELLHCARLAKQNPAQYLAQHEQLLLDASTTSPVDSSELLLDVNENGKRRTPDRTKENGFDREPLHSEHPSKRPCTISPGQRYSPNNGLSYQPNGLPHPTPPPPQHYRLDDMAIAHHYRDSYRHPSHRDLRDRNRPMGLHGTRQEEMIDHRLTDREWAEEWKHLDHLLNCIMDMVEKTRRSLTVLRRCQEADREELNYWIRRYSDAEDLKKGGGSSSSHSRQQSPVNPDPVALDAHREFLHRPASGYVPEEIWKKAEEAVNEVKRQAMTELQKAVSEAERKAHDMITTERAKMERTVAEAKRQAAEDALAVINQQEDSSESCWNCGRKASETCSGCNTARYCGSFCQHKDWEKHHHICGQTLQAQQQGDTPAVSSSVTPNSGAGSPMDTPPAATPRSTTPGTPSTIETTPR
chain 2: MKRRLDDQESPVYAAQQRRIPGSTEAFPHQHRVLAPAPPVYEAVSETMQSATGIQYSVTPSYQVSAMPQSSGSHGPAIAAVHSSHHHPTAVQPHGGQVVQSHAHPAPPVAPVQGQQQFQRLKVEDALSYLDQVKLQFGSQPQVYNDFLDIMKEFKSQSIDTPGVISRVSQLFKGHPDLIMGFNTFLPPGYKIEVQTNDMVNVTTPGQVHQIPTHGIQPQPQPPPQHPSQPSAQSAPAPAQPAPQPPPAKVSKPSQLQAHTPASQQTPPLPPYASPRSPPVQPHTPVTISLGTAPSLQNNQPVEFNHAINYVNKIKNRFQGQPDIYKAFLEILHTYQKEQRNAKEAGGNYTPALTEQEVYAQVARLFKNQEDLLSEFGQFLPDANSSVLLSKTTAEKVDSVRNDHGGTVKKPQLNNKPQRPSQNGCQIRRHPTGTTPPVKKKPKLLNLKDSSMADASKHGGGTESLFFDKVRKALRSAEAYENFLRCLVIFNQEVISRAELVQLVSPFLGKFPELFNWFKNFLGYKESVHLETYPKERATEGIAMEIDYASCKRLGSSYRALPKSYQQPKCTGRTPLCKEVLNDTWVSFPSWSEDSTFVSSKKTQYEEHIYRCEDERFELDVVLETNLATIRVLEAIQKKLSRLSAEEQAKFRLDNTLGGTSEVIHRKALQRIYADKAADIIDGLRKNPSIAVPIVLKRLKMKEEEWREAQRGFNKVWREQNEKYYLKSLDHQGINFKQNDTKVLRSKSLLNEIESIYDERQEQATEENAGVPVGPHLSLAYEDKQILEDAAALIIHHVKRQTGIQKEDKYKIKQIMHHFIPDLLFAQRGDLSDVEEEEEEEMDVDEATGAVKKHNGVGGSPPKSKLLFSNTAAQKLRGMDEVYNLFYVNNNWYIFMRLHQILCLRLLRICSQAERQIEEENREREWEREVLGIKRDKSDSPAIQLRLKEPMDVDVEDYYPAFLDMVRSLLDGNIDSSQYEDSLREMFTIHAYIAFTMDKLIQSIVRQLQHIVSDEICVQVTDLYLAENNNGATGGQLNTQNSRSLLESTYQRKAEQLMSDENCFKLMFIQSQGQVQLTIELLDTEEENSDDPVEAERWSDYVERYMNSDTTSPELREHLAQKPVFLPRNLRRIRKCQRGREQQEKEGKEGNSKKTMENVDSLDKLECRFKLNSYKMVYVIKSEDYMYRRTALLRAHQSHERVSKRLHQRFQAWVDKWTKEHVPREMAAETSKWLMGEGLEGLVPCTTTCDTETLHFVSINKYRVKYGTVFKAP
B2: HA-tagged RUNX1T1, wild type [human] / FLAG-tagged GFI-1 [not stated] (parent complex)
chain 1: B1 chain 1
chain 2: not shown

Variants of: B1
Assay: co-immunoprecipitation (IP: HA) with densitometry quantification; HA-tagged RUNX1T1 and FLAG-tagged interactor co-expressed in HEK-293 cells; parent: 1; read off a plot

Row | ratio to parent | Variant
1 | ~2.6 | chain 1 E146K
2 | ~0.57 | chain 1 E163K

Variants of: B2
Assay: as above

Row | ratio to parent | Variant
3 | ~1.6 | chain 1 E163K
4 | ~1.6 | chain 1 E146K
